The values below come from US8435548 (BIO FD AND C, dated 2013).

Where no end group is shown, it is not given here. The star is where a group is joined. Galloyl = O=C(c1cc(O)c(O)c(O)c1)*

The target in the experiment is mushroom tyrosinase (1,500 units/ml, Sigma) (mushroom). Put plainly: cell-based or functional assay.
For the molecule Galloyl-YGGFLRKYPK [Galloyl-decapeptide (tyrosyl-glycyl-glycyl-phenylalanyl-leucyl-arginyl-lysyl-tyrosyl-prolyl-lysine)], the “Inhibition (%) of tyrosinase activity (absorbance at 490 nm, L-tyrosine substrate, compound at 100 µM)” value worked out at 5%. With KYHY (also: two galloyl groups, attachment sites not given here) [Digalloyl-tetrapeptide (lysyl-tyrosyl-histidyl-tyrosine)] the figure was 21%; with Galloyl-Glu-Cys-Gly [Galloyl-tripeptide (glutamyl-cysteinyl-glycine)], 34%; with Galloyl-KECG [Galloyl-tetrapeptide (lysyl-glutamyl-cysteinyl-glycine)], 40%. With KECG (also: two galloyl groups, attachment sites shown only in formula IV) [Digalloyl-tetrapeptide (lysyl-glutamyl-cysteinyl-glycine)] the figure was 52%.

With Galloyl-Tyr-His-Tyr [Galloyl-tripeptide (tyrosyl-histidyl-tyrosine)], the “Inhibition (%) of tyrosinase activity (absorbance at 490 nm, L-tyrosine substrate, compound at 100 µM)” value stood at 15%.
